{"source": "paper PMC7565637", "key": {"[1]": {"molecular_target": "Orsay virus capsid protein (CP) (Orsay virus)", "assay": "co-sedimentation; infectious Orsay virions from culture supernatant of infected rde-1 worms, Triton X-100 treated, pelleted, banded on a 25% to 47.5% iodixanol step gradient (~1.3 g/ml); SDS-PAGE and Western blot with anti-CP antiserum, band intensities measured with Fiji"}, "[2]": {"molecular_target": "Orsay δ(1–101) (Orsay virus)", "assay": "crystal structure; Orsay δ(1–101) crystallised by hanging drop, 0.1 M ammonium sulfate, 0.1 M sodium acetate pH 4.6, 25% PEG 4000, 20°C; space group P212121, five chains in the asymmetric unit; 1.8 Å"}, "[3]": {"molecular_target": "full-length Le Blanc δ (Le Blanc virus)", "assay": "intact-protein LC-MS (reverse phase C3 column, Orbitrap); purified δ diluted to 200 ng/μl in 2% ACN, 0.1% FA; ZORBAX C3-300SB column, gradient 5% to 95% B; Orbitrap Fusion Lumos, positive mode; observed mass compared with the theoretical pentamer mass"}, "[4]": {"molecular_target": "full-length Santeuil δ (Santeuil virus)", "assay": "intact-protein LC-MS (reverse phase C3 column, Orbitrap); purified δ diluted to 200 ng/μl in 2% ACN, 0.1% FA; ZORBAX C3-300SB column, gradient 5% to 95% B; Orbitrap Fusion Lumos, positive mode; observed mass compared with the theoretical pentamer mass"}}, "data": [{"substance": "Orsay CP-δ fusion protein (natural protein)", "values": [{"measurement": "pentameric CP-δ fibers per viral particle (fibers per viral particle)", "setting": "[1]", "result": 1.1}]}, {"substance": "Orsay δ(1–101) (domain or fragment)", "values": [{"measurement": "stoichiometry N", "setting": "[2]", "result": 5}]}, {"substance": "full-length Le Blanc δ (natural protein)", "values": [{"measurement": "stoichiometry N", "setting": "[3]", "result": 5}]}, {"substance": "full-length Santeuil δ (natural protein)", "values": [{"measurement": "stoichiometry N", "setting": "[4]", "result": 5}]}]}
